Here are results for three substances from article PMC3281020.

For data set [1], the system named is Isw1a complex (TAP-purified via Ioc3-TAP, strain YTT1168) (yeast, strain YTT1168). Kind of data set: magnetic tweezers. Conditions: no ATP, end-tethered to glass and bead (1 um), TEM/EMSA: 20 mM (Methods: 10 mM) Tris-HCl pH 8.0, 30 mM KCl, 17.5 mM NaCl, 1 mM Hepes pH 7.6, 0.75% glycerol, 20 min at 30 C, 750 nM DNA in bp, CHD1 tweezers: ….
For data set [2] the test system is unchanged. Kind of data set: TEM. Conditions: no ATP, TEM/EMSA: 20 mM (Methods: 10 mM) Tris-HCl pH 8.0, 30 mM KCl, 17.5 mM NaCl, 1 mM Hepes pH 7.6, 0.75% glycerol, 20 min at 30 C, 750 nM DNA in bp, CHD1 tweezers: ….
For data set [3] the test system is unchanged. Kind of data set: TEM, competition. Conditions: TEM/EMSA: 20 mM (Methods: 10 mM) Tris-HCl pH 8.0, 30 mM KCl, 17.5 mM NaCl, 1 mM Hepes pH 7.6, 0.75% glycerol, 20 min at 30 C, 750 nM DNA in bp, CHD1 tweezers: ….

Consider 3.6 kbp tethered DNA (magnetic trap), for which the Kd in data set [1] (F about 1 pN, tau_on 64 s, tau_off 69 s) is 1 nM; in data set [1] (extrapolated to zero force, single nucleation complex), 0.001 nM.
For “linear pBR322 EcoRV-SspI fragment, 3983 bp”, the binding signal (% unbound DNA) in data set [2] (2 nM Isw1a) was found to be 82; in data set [2] (10 nM Isw1a), 53; in data set [2] (50 nM Isw1a), 20; in data set [3] (2 nM Isw1a, 1:1 mixture with scDNA) it was 90; in data set [3] (10 nM Isw1a, 1:1 mixture with scDNA), 73; in data set [3] (50 nM Isw1a, 1:1 mixture with scDNA), 25.
As for pBR322 negatively supercoiled plasmid, the binding signal (% unbound DNA) in data set [2] (2 nM Isw1a) turned out to be 57; in data set [2] (10 nM Isw1a), 37; in data set [2] (50 nM Isw1a), 10; in data set [3] (2 nM Isw1a, 1:1 mixture with linear DNA) it was 59; in data set [3] (10 nM Isw1a, 1:1 mixture with linear DNA) it was 33; in data set [3] (50 nM Isw1a, 1:1 mixture with linear DNA) it was 6.
